Measurements as given in patent US20210355220A1 (TIKCRO TECHNOLOGIES, published 2021).

Legend:
[1] = biological target: T1, Macaque (Macaca fascicularis) CTLA-4 on HEK293 cells (Macaca fascicularis, UniProt G7PL88 36-223); assay: flow cytometry on HEK293 cells transiently expressing macaque CTLA-4, reference ipilimumab
T1 construct: whole, on cells; also called macaque CTLA-4
Method: (§1) Macaque (Macaca fascicularis), pig (Sus scrofa) and mouse (Mus musculus) CTLA-4 proteins were transiently expressed on the surface of HEK293 cells. […] Binding was measured using FACS and analyzed.

[2] = biological target: T2, human CTLA-4 expressed on cells (human, UniProt P16410 36-223); assay: flow cytometry on HEK293-hCTLA-4 cells
T2 construct: whole, on cells; On stably or transiently transfected HEK293 cells; also called hCTLA-4; HEK293-hCTLA-4 cells
T2 sequence (P16410 36-223): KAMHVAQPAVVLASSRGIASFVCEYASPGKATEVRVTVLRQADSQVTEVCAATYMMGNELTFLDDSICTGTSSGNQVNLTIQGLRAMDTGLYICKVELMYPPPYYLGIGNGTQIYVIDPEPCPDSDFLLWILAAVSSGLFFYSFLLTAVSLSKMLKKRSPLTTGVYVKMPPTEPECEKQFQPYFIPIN
Method: To test the binding of antibodies to CTLA-4 under more physiological conditions, the binding of CTLA-4 antibodies to cell-surface CTLA-4 was tested. […] The surface expression of hCTLA-4 in the obtained cell line was tested using a commercial anti-CTLA-4 antibody and compared to the parent cell line (HEK293 without transfection). […] The anti-CTLA-4 antibodies were incubated in serial dilution concentrations with the HEK293-hCTLA-4 cells for 1 hour on ice. Following a wash step, an anti-human antibody conjugated to ALEXA FLUOR® 647® was added for an additional hour. The cells were washed, and propidium iodide (PI) was added to exclude dead cells. The fluorescent signal was measured using FACS and analyzed. Dead cells were removed based on the PI signal. The population was gated based on forward and side scatter (FSC and SSC) parameters, and doublets were removed. The Median Fluorescent Intensity (MFI) of the appropriate channel was calculated for the live single cells from each group. The MFI was plotted versus antibody concentration in Prism software (V6.01) and kinetic parameters were obtained using a curve fit dose response function with four parameters. […] The lower EC₅₀ values indicate increased binding affinity to cell surface hCTLA-4.

[3] = biological target: T2, human CTLA-4 expressed on cells; assay: flow cytometry, inhibition of CD80-mFC binding to HEK293-hCTLA-4 cells, reference ipilimumab
Method: As part of their activity, CTLA-4 therapeutic antibodies block the interaction between CTLA-4 and its ligands, leaving the ligands free for CD28 binding. […] First, HEK293-hCTLA-4 cells were incubated with the tested antibodies in a serial dilution for 30 minutes. […] The fluorescence was measured and analyzed. The experiment was performed in triplicate and is representative of three biological repeats.

[4] = biological target: T1, Macaque (Macaca fascicularis) CTLA-4 on …; assay: flow cytometry on HEK293 cells transiently expressing macaque CTLA-4
Method: as §1

T1 sequence (G7PL88 entry or part of it): as the sequence (P16410 36-223) above, with S14N, I18T, L106M counted along it

B1: Ab55h (antibody, V domains shown)
VH: QVQLQESGPGLVKPSETLSLTCAVSGYSISGDYYWGWIRQPPGKGLEWIGSIYHSGYTYYNPSLKSRVTISVDTSKNQFSLKLSSVTAADTAVYYCARDSGWYVIAFDYWGQGTLVTVSS
VL: EIVMTQSPATLSVSPGERATLSCRASQSVSSNLAWYQEKPGQAPRLLIYGASTRATGIPARFSGSGSGTEFTLTISSLQSEDFAVYYCQQYNNWPPLTFGGGTKVEIK
notes: Human form, compared with an hIgG1 isotype control
With B1 the “Ratio Ipilimumab:Ab55h of EC50” value [1] was 2.6 fold, the EC50 [2] was 170 pM and the “Ratio Ipilimumab:Ab55h of IC50” value [3] was 3 fold. It also gave an EC50 [4] of 300 pM.
